Reference: paper PMC7810697, “Sarcolipin alters SERCA1a interdomain communication by impairing binding of both calcium and ATP” (Scientific Reports, 2021)
Values joined by “and” are separate entries in the source; they are usually repeats but may differ in a detail not shown here. Equal values may be shown once. Ends that are not written are not given here. * marks the point of attachment. Palmitoyl = CCCCCCCCCCCCCCCC(=O)*

Legend:
[1] = target: T1, recombinant SERCA1a (recS1a) (Oryctolagus cuniculus, UniProt P04191); test: Steady-state ATPase activity, enzyme-coupled assay; format: biochemical, rabbit (expressed in S. cerevisiae)
T1 construct: BAD (biotin acceptor domain) (C, cleaved yes); made in house; host or cells: Saccharomyces cerevisiae
Method: resuspended in a large volume of pure water and lyophilized to evaporate most of the TFA. The rinsed powder was then suspended in presence of 10 mM HCl to exchange the anionic residual TFA that may interact with the positive charges of the peptide for chloride. This suspension was lyophilized again.
Three additional cycles of – dissolving in pure water / lyophilisation – will allow to eliminate traces of TFA and to get back to a pH compatible with functional tests. For final solubilisation of SLN in detergent, powder was then dissolved in 50% TFE and an amount of detergent to reach a 100:1 mole:mole detergent:SLN ratio. Here, we used C12E8 as it is fully compatible with functional characterization of SERCA1a 23. This suspension was then lyophilized again to evaporate TFE.
Sarcolipins (Palm-SLN or SLN) were finally resuspended at 0.8 mg/mL (about 200 µM) in a 10 mM potassium phosphate buffer pH 7.4, in the presence of 2.5 mg/mL C12E8.
Expression and Purification of recombinant SERCA1a (recS1a)
The yeast expression plasmid pYeDP60-SERCA1a-BAD (WT) and expression in Saccharomyces cerevisiae was described previously 30. Yeast membranes were solubilized by DDM for subsequent purification of recombinant Ca2+-ATPase by Streptavidin affinity chromatography 31. Purified recombinant SERCA1a was recovered in a buffer containing 50 mM MOPS-Tris pH7, 100 mM KCl, 5 mM MgCl2, 2.1 mM CaCl2, 40 % glycerol (v/v) and 0.5 mg/mL DDM, together with some thrombin remaining from the elution procedure. The protein concentration in the purified fraction was in the 0.05 to 0.15 mg/mL range depending on the batch. […]
Steady-state ATPase activity measurements
Measurements were performed using classical enzyme coupled assay. We measured the rate of NADH oxidation in the presence of 0.1 mg/mL lactate deshydrogenase, 0.05 mg/mL pyruvate kinase, 1 mM phosphoenolpyruvate, 0.25 mM NADH (protocol was adapted from 22) and in the additional presence of 2 mg/mL C12E8 to limit time-dependent inactivation of the purified SERCA1a 20,23.

[2] = target: T1, recombinant SERCA1a (recS1a); test: Mg.ATP binding by tryptophan fluorescence; parameters: species or system rabbit (expressed in S. cerevisiae)
Method: Intrinsic fluorescence of SERCA1a was measured with a SPEX Fluorolog spectrofluorometer (Horiba/Jobin–Yvon, Longjumeau, France) as described before. Briefly, signals were monitored with excitation and emission wavelength set at 295 and 320 nm, with bandwidths of 2 and 10 nm, respectively. Changes in tryptophan fluorescence were recorded at 20 °C after dilution of protein samples to a final concentration of about 6–7.5 µg/mL into a medium containing 50 mM MOPS-Tris pH 7, 100 mM KCl, 5 mM MgCl2, 20% glycerol (v/v) and 10 mg/mL DDM. In presence of SLN, recS1a and SLN were first mixed together and incubate for 1 h on ice before measurement. In absence of SLN, recS1a is supplemented with 0.07 mg/mL C12E8 to compensate the detergent present with SLN. The Maxchelator program was used for estimating [Ca^2+]free[59] (program available at https://somapp.ucdmc.ucdavis.edu/pharmacology/bers/maxchelator/downloads.htm). The dissociation constant of the Ca.EGTA complex was taken to be 0.4 µM at pH7 and was assumed to be the same in the presence of glycerol.

T1 sequence (P04191 1-994 isoform P04191-2): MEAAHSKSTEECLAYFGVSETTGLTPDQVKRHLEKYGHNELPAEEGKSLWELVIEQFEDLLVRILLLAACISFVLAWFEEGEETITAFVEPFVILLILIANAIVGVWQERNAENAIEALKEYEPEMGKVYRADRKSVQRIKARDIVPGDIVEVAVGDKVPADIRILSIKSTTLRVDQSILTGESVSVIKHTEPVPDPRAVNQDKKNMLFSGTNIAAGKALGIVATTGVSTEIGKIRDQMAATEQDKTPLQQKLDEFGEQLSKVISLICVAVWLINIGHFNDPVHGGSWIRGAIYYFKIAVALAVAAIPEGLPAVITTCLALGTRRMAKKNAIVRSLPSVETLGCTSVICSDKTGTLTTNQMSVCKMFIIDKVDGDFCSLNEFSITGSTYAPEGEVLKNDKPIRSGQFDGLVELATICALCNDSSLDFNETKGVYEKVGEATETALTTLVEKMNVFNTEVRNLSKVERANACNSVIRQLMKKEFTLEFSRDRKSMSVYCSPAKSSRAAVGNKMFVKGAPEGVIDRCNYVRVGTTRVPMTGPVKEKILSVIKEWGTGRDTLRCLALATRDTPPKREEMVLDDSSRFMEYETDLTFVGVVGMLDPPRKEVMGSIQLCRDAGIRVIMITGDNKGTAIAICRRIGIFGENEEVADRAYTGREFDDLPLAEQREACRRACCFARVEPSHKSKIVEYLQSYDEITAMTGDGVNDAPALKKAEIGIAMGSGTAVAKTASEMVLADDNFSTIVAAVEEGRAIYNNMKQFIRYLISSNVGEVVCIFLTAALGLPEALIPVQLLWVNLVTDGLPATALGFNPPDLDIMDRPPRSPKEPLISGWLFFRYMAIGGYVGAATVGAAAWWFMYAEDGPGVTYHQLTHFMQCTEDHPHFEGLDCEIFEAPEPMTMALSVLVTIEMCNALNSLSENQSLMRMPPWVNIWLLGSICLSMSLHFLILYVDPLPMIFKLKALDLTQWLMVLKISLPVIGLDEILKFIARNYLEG

With “pSLN: chemically synthesized S-palmitoylated rabbit sarcolipin, 31-residue single-spanning membrane peptide, palmitoylated on Cys9 (MERSTRELC(Palmitoyl)LNFTVVLITVILIWLLVRSYQY; UniProt P42532 1-31, looked up)” the maximal turnover ([1]; recS1a + Palm-SLN, recS1a alone 2.88 +/- 0.12) was 2.74 +/- 0.04 µmol ATP/mg/min, the “affinity for calcium and maximum turn-over” value ([1]; recS1a in absence or presence of pSLN, enzyme-coupled assay) was “no difference was observed” and the “Ca1/2 (ATPase activity), recS1a + pSLN” value ([1]; steady state, NADH-coupled assay, 2 mg/mL C12E8, three independent experiments, p=0.248) was 0.13 +/- 0.06 µM. The “fluorescence change on 0.3 µM Mg.ATP, recS1a + pSLN” value ([2]; 0.3 µM Mg.ATP, increase of fluorescence in absence of pSLN) was “no fluorescence intensity variation”, the “fluorescence change on 300 µM Mg.ATP, recS1a + pSLN” value ([2]; 300 µM Mg.ATP, decrease of fluorescence in absence of pSLN) was “increase of signal” and the “Mg-ATP1/2 (affinity for Mg.ATP), recS1a + pSLN” value ([2]; calcium-deprived (2 mM EGTA), pH 7, 20 °C, DDM, 20% glycerol, three independent experiments, p = 0.045) was 11 µM and 11.0 ± 1 µM. The “nH for Mg.ATP, recS1a + pSLN” value ([2]; three independent experiments) was 0.95 ± 0.06.
